According to patent publication US20260317411 (published 2026):

T1: VEGF (UniProt P15692)
T1 chain: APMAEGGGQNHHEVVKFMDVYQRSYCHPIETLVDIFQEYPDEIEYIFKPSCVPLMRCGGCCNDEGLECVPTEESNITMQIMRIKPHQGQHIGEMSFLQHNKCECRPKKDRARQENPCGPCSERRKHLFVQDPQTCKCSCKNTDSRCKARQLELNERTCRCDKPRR


Molecular target: T1, VEGF
Test: SPR

| Kd [nM] | Binder |
| --- | --- |
| 0.0205 | scFv1 (antibody) DIQLTQSPSSLSASVGDRVTITCSASQDISNYLNWYQQKPGKAPKVLIYFTSSLHSGVPSRFSGSGSGTDFTLTISSLQPEDEATYYCQQYSTVPWTFGQGTKVEIKGGGSGGGSGGGSGGGSGGGSEVQLVESGGGLVQPGGSLRLSCAASGYDFTHYGMNWVRQAPGKGLEWVGWINTYTGEPTYAADFKRRFTFSLDTSKSTAYLQMNSLRAEDTAVYYCAKYPYYYGTSHWYFDVWGQGTLVTVSS |
| 0.0236 | scFv3 (antibody) DIQLTQSPSSLMASVGDRVTITCSASQDISNYLNWYQQKPGKAPKVLIYFTSSLHSGVPSRFSGSGSGTDFTLTISSLQPEDEATYYCQQYSTVPWTFGQGTKVEIKGGGSGGGSGGGSGGGSGGGSEVQLVESGGGLVQPGGSLRLSCAASGYDFTHYGMNWVRQAPGKGLEWVGWINTYTGEPTYAADFKRRFTFSLDTSKSTAYLQMNSLRAEDTAVYYCAKYPYYYGTSHWYFDVWGQGTLVTVSS |
